The test system of data set [1] is Renilla luciferase expression. In words: Renilla luciferase assay of HEK 293 cells transfected with pRL-SV40 constructs carrying U1 binding sites in the 3′ UTR. It counts as cell-based. The following applies: for suppressive effect of U1 site on luciferase gene expression (in words): no ligand; for reduction fold (luciferase activity of mutant construct / wild type construct): compared to corresponding mutant construct; for inhibition of Renilla luciferase expression/activity: compared to pRL-SV40 control vector. How it is done: Plasmid constructs: oligonucleotides (oligos) containing either wild type consensus U1 binding sequence or its mutant sequence were synthesized (IDT). The synthesized oligos were cloned into the 3′ UTR of the pRL-SV40 luciferase expression vector (Promega) using Gibson Assembly Cloning Kit (NEB). Constructs were purified (Qiagen) and verified by DNA sequencing (Genewiz).
(§1) Transfection: 3.5×10^4 HEK 293 cells were plated in a 96-well flat bottom plate the day before transfection. Plasmid DNA (500 ng) was added to a tube or a 96-well U-bottom plate. Separately, TransIT-293 reagent (Mirus; 1.4 μl) was added to 50 μl Opti-mem I media (Life Technologies), and allowed to sit for 5 minutes at room temperature (“RT”). Then, 50 μl of this diluted transfection reagent was added to the DNA, mixed, and incubated at RT for 20 min. Finally, 7 μl of this solution was added to a well of cells in the 96-well plate.
(§2) Renilla luciferase assay of cultured cells: 24 hours after the media change, plates were removed from the incubator, and equilibrated to RT for several minutes on a lab bench, and the media aspirated. Glo-lysis buffer (Promega, 100 μl, RT) was added, and the plates allowed to remain at room temp for at least 5 minutes. Then, the well contents were mixed by 50 μl trituration, and 20 μl of each well was mixed with 20 μl of Renilla-glo reagent in a solid-white 384-well plate. Ten minutes later, luminescence was measured using a Tecan machine with 500 msec read time. The luciferase activity was expressed as mean relative light unit (RLU)±SD.
The stem-loop sequences containing a wild type 9 nt U1 binding sequence were synthesized (IDT) and cloned into pRL-SV40 vector. The construct sequences were verified by DNA sequencing (Genewiz). HEK 293 cells were transfected and Renilla luciferase assay were performed as described in Example 1.

Data set [2] relates to Renilla luciferase expression. Description: Renilla luciferase assay of HEK 293 cells transfected with U1_theo riboswitch constructs, with or without theophylline. The following applies: for induction fold of luciferase activity (theophylline treated / untreated): 3 mM theophylline, 20 to 24 hours; for change of luciferase activity after theophylline treatment (in words): with vs without theophylline. It counts as cell-based. The method, then:
as §1, §2
Oligonucleotides containing either the full length of sequences of the stem from the stem-loop structure and theophylline aptamer or the truncated sequences of the stem, were synthesized (IDT) and cloned into pRL-SV40 vector using the Gibson Assembly Cloning Kit (NEB). Construct sequences were verified by DNA sequencing (Genewiz).
Transfection and aptamer ligand treatment: HEK 293 cells were transfected as described in Example 1. Four hours after transfection, the media was aspirated, and new media with or without 3 mM theophylline was added. A Renilla luciferase assay was performed 20 to 24 hours after theophylline treatment as described in Example 1. The induction fold was expressed as the quotient of luciferase activity obtained in the presence of aptamer ligand divided by the value obtained in the absence of the aptamer ligand.
Oligos containing 4 copies of the U1_theo_8_1 sequence in tandem were synthesized (IDT) and cloned using Gibson strategy and cloning kit (NEB). HEK 293 cells were transfected and Renilla luciferase assay was performed as described in Example 4.

Residue numbers refer to the chain shown, from its start.

B1: 87-9: 9-nt truncated U1 site at −87 in pRL-SV40 (nucleic acid)
DNA: TCAAATCGTTCGTTGAGCGAGTTCTCAAAAATGAACAATAATTCTAGAGCGGCCGCTTCGAGCAGACATGATAAGATACATTGATGAGTTTGGACAAACCAGGTAAGTCAACTAGAATGCAGTGAAAAAAATGCTTTATTTGTGAAATTTGTGATGCTATTGCTTTATTTGTAACCATTATAAGCTGCAATAAACAAGTTAACAACAAC
modifications: in pRL-SV40; 87-9 in pRL-SV40
notes: 9-nt truncated U1 site at −87 in pRL-SV40
Consider B1, for which the “suppressive effect of U1 site on luciferase gene expression (in words)” value (shortened to “suppressive effect of U1 site”) in data set [1] is on record as “functioned as well as the 10-nt U1 site”.

B2: U1 87-9 SL: 9 nt U1 site embedded in a stem-loop structure in pRL-SV40 (nucleic acid)
DNA: TCAAATCGTTCGTTGAGCGAGTTCTCAAAAATGAACAATAATTCTAGAGCGGCCGCTTCGAGCAGACATGATAAGATACATTGATGAGTTTGGACAAACCAAACCCAGGTAAGTTACCGAAAGGTAACTTACCTGGGCAACTAGAATGCAGTGAAAAAAATGCTTTATTTGTGAAATTTGTGATGCTATTGCTTTATTTGTAACCATTATAAGCTGCAATAAACAAGTTAACAACAAC
modifications: in pRL-SV40; U1 87-9 SL in pRL-SV40
notes: 9 nt U1 site embedded in a stem-loop structure in pRL-SV40
Regarding B2, the “suppressive effect of U1 site” value in data set [1] is “completely abolished the suppressive effect of the U1 site”; in data set [1] (listed as U1 87-9 stem loop), “completely abolished the suppressive effect”.

B3: U1 87-9 SL broken: control sequence in which no stem is formed, in pRL-SV40 (nucleic acid)
DNA: TCAAATCGTTCGTTGAGCGAGTTCTCAAAAATGAACAATAATTCTAGAGCGGCCGCTTCGAGCAGACATGATAAGATACATTGATGAGTTTGGACAAACCAAACCCAGGTAAGTTACCGAAAAAAACAAACAAAAAACAACTAGAATGCAGTGAAAAAAATGCTTTATTTGTGAAATTTGTGATGCTATTGCTTTATTTGTAACCATTATAAGCTGCAATAAACAAGTTAACAACAAC
modifications: in pRL-SV40; U1 87-9 SL broken in pRL-SV40
On to B3, for which the “suppressive effect of U1 site” value in data set [1] is recorded as “showed little effect on the suppressive function of U1 site”.

B4: U1-140 mut: mutant U1 binding sequence at −140 in pRL-SV40 (nucleic acid)
DNA: TCAAATCGTTCGTTGAGCGAGTTCTCAAAAATGAACAATAATTCTAGACATGGAACTAGCGGCCGCTTCGAGCAGACATGATAAGATACATTGATGAGTTTGGACAAACCACAACTAGAATGCAGTGAAAAAAATGCTTTATTTGTGAAATTTGTGATGCTATTGCTTTATTTGTAACCATTATAAGCTGCAATAAACAAGTTAACAACAAC
modifications: in pRL-SV40; U1-140 mut in pRL-SV40
As to B4, in data set [1], the “suppressive effect of U1 site” value is on record as “did not cause inhibition of luciferase gene expression”.

B5: U1-140 wt: consensus U1 binding sequence at −140 in pRL-SV40 (nucleic acid)
DNA: B4 DNA with T51G, G53T, C56G
modifications: in pRL-SV40; U1-140 wt in pRL-SV40
Take B5: in data set [1], the “reduction fold (luciferase activity of mutant construct / wild type construct)” value was 12 fold and the “inhibition of Renilla luciferase expression/activity” value is given as 91%.

B6: 2×U1-140 wt: 2 copies of wild type U1 binding sequence at −140 in pRL-SV40 (nucleic acid)
DNA: TCAAATCGTTCGTTGAGCGAGTTCTCAAAAATGAACAATAATTCTAGACAGGTAAGTAACCAAACAGGTAAGTAGCGGCCGCTTCGAGCAGACATGATAAGATACATTGATGAGTTTGGACAAACCACAACTAGAATGCAGTGAAAAAAATGCTTTATTTGTGAAATTTGTGATGCTATTGCTTTATTTGTAACCATTATAAGCTGCAATAAACAAGTTAACAACAAC
modifications: in pRL-SV40; 2xU1-140 wt in pRL-SV40
For the molecule B6, in data set [1], the “reduction fold (luciferase activity of mutant construct / wild type construct)” value is on record as 272 fold.

B7: 3×U1-140 wt: 3 copies of wild type U1 binding sequence at −140 in pRL-SV40 (nucleic acid)
DNA: TCAAATCGTTCGTTGAGCGAGTTCTCAAAAATGAACAATAATTCTAGACAGGTAAGTAACCAAACAGGTAAGTAACCAAACAGGTAAGTAGCGGCCGCTTCGAGCAGACATGATAAGATACATTGATGAGTTTGGACAAACCACAACTAGAATGCAGTGAAAAAAATGCTTTATTTGTGAAATTTGTGATGCTATTGCTTTATTTGTAACCATTATAAGCTGCAATAAACAAGTTAACAACAAC
modifications: in pRL-SV40; 3xU1-140 wt in pRL-SV40
Regarding B7, the “reduction fold (luciferase activity of mutant construct / wild type construct)” value in data set [1] is on record as 462 fold.

B8: U1-87 mut: 10-nt mutant U1 binding sequence at −87 in pRL-SV40 (nucleic acid)
DNA: TCAAATCGTTCGTTGAGCGAGTTCTCAAAAATGAACAATAATTCTAGAGCGGCCGCTTCGAGCAGACATGATAAGATACATTGATGAGTTTGGACAAACCATGGAACTACAACTAGAATGCAGTGAAAAAAATGCTTTATTTGTGAAATTTGTGATGCTATTGCTTTATTTGTAACCATTATAAGCTGCAATAAACAAGTTAACAACAAC
modifications: in pRL-SV40; U1-87 mut in pRL-SV40
With B8, the “suppressive effect of U1 site” value in data set [1] is recorded as “did not have any suppressive effect on luciferase gene expression”.

B9: U1-87 wt: 10-nt consensus U1 binding sequence 87 nt upstream of poly(A) signal in 3′ UTR of pRL-SV40 (nucleic acid)
DNA: B8 DNA with T102G, G104T, C107G
modifications: in pRL-SV40; U1-87 wt in pRL-SV40
Take B9: in data set [1], the “reduction fold (luciferase activity of mutant construct / wild type construct)” value is given as 50 fold and the “inhibition of Renilla luciferase expression/activity” value is given as 98%.

B10: U1_theo_8: U1 site stem linked to theophylline aptamer in pRL-SV40, stem truncation series (nucleic acid)
DNA: TCAAATCGTTCGTTGAGCGAGTTCTCAAAAATGAACAATAATTCTAGAGCGGCCGCTTCGAGCAGACATGATAAGATACATTGATGAGTTTGGACAAACCAAACCCAGGTAAGTGATACCAGCCGAAAGGCCCTTGGCAGCACTTACCTGGGCAACTAGAATGCAGTGAAAAAAATGCTTTATTTGTGAAATTTGTGATGCTATTGCTTTATTTGTAACCATTATAAGCTGCAATAAACAAGTTAACAACAAC
modifications: in pRL-SV40; U1_theo_8 in pRL-SV40
notes: U1 site stem linked to theophylline aptamer in pRL-SV40, stem truncation series
On to B10, for which, in data set [2], the “induction fold of luciferase activity (theophylline treated / untreated)” value turned out to be 1.3 fold and the “change of luciferase activity after theophylline treatment (in words)” value (“change of luciferase activity” for short) is listed as “small increase in luciferase activity”. Besides, in data set [2] (listed as 8), the “change of luciferase activity” value is recorded as “increased”.

B11: U1_theo_8_1: sequential stem mutation of U1_theo_8 in pRL-SV40 (nucleic acid)
DNA: B10 DNA with G152A
modifications: in pRL-SV40; U1_theo_8_1 in pRL-SV40
B11: the “induction fold of luciferase activity (theophylline treated / untreated)” value in data set [2] stood at 1.8 fold.

B12: U1_theo_9: U1 site stem linked to theophylline aptamer in pRL-SV40, stem truncation series (nucleic acid)
DNA: TCAAATCGTTCGTTGAGCGAGTTCTCAAAAATGAACAATAATTCTAGAGCGGCCGCTTCGAGCAGACATGATAAGATACATTGATGAGTTTGGACAAACCAAACCCAGGTAAGTATACCAGCCGAAAGGCCCTTGGCAGACTTACCTGGGCAACTAGAATGCAGTGAAAAAAATGCTTTATTTGTGAAATTTGTGATGCTATTGCTTTATTTGTAACCATTATAAGCTGCAATAAACAAGTTAACAACAAC
modifications: in pRL-SV40; U1_theo_9 in pRL-SV40
notes: as for B10
Take B12: the “change of luciferase activity” value in data set [2] is reported as “small increase in luciferase activity”; in data set [2] (listed as 9), “increased”.

The values above are taken from patent US11697815B2, “Regulation of gene expression through aptamer-modulated polyadenylation” (MeiraGTx UK II Limited, priority 2016, dated 2023).
